Laboratory results published in patent US20180022822A1 (MABIMMUNE DIAGNOSTICS, published 2018).

Key:
[1] = target: T1, recombinant human Fibroblast Activation Protein (FAP) with N-terminus 6x histidine tag (human, UniProt Q12884 26-760); assay: direct ELISA: rFAP directly coated (FAP)
T1 construct: Bought protein; also called rFAP; rhFAP
T1 sequence: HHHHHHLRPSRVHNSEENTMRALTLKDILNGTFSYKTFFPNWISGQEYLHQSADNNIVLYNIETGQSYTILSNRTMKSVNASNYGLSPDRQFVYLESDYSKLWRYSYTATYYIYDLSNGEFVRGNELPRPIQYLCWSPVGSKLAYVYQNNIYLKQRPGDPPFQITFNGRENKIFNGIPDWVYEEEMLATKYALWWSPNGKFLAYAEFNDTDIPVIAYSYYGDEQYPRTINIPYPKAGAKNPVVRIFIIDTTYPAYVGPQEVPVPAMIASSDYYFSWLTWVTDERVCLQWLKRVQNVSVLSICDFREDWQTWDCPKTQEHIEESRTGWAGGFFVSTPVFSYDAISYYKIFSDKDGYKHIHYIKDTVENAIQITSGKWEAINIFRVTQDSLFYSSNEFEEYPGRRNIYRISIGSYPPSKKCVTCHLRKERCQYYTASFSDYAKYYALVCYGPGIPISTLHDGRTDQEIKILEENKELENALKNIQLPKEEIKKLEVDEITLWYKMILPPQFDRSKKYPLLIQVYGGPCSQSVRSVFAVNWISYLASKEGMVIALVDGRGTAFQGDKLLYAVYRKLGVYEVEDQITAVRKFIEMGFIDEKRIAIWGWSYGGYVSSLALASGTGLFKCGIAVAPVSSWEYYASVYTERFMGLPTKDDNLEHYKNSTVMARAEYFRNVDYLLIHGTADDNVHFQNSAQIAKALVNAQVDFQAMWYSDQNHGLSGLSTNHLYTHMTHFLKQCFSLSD

[2] = target: T2, cFAP (mixture of three FAP peptides) (human); assay: direct ELISA: coated mixture of three FAP peptides (cFAP)
T2 construct: A mixture of three separate peptides coated together, not a complex; The three chains are the three components; also called directly coated FAP peptides mixture
T2 peptide 1: HYIKDTVENAIQITS
T2 peptide 2: GWSYGGYVSSLALAS
T2 peptide 3: QVDFQAMWYSDQNHGL

[3] = target: T3, recombinant human Dipeptidyl Peptidase IV (DPPIV) (human, UniProt P27487 29-766, limits assumed); assay: sandwich ELISA: F19 coated as capture antibody, homologue titrated, HRP-labelled NI-206.82C2 as detection antibody; no signal means that no F19/antigen/82C2 sandwich formed
T3 construct: Bought active enzyme; also called rhDPPIV; DPP4
T3 sequence (P27487 29-766 limits assumed): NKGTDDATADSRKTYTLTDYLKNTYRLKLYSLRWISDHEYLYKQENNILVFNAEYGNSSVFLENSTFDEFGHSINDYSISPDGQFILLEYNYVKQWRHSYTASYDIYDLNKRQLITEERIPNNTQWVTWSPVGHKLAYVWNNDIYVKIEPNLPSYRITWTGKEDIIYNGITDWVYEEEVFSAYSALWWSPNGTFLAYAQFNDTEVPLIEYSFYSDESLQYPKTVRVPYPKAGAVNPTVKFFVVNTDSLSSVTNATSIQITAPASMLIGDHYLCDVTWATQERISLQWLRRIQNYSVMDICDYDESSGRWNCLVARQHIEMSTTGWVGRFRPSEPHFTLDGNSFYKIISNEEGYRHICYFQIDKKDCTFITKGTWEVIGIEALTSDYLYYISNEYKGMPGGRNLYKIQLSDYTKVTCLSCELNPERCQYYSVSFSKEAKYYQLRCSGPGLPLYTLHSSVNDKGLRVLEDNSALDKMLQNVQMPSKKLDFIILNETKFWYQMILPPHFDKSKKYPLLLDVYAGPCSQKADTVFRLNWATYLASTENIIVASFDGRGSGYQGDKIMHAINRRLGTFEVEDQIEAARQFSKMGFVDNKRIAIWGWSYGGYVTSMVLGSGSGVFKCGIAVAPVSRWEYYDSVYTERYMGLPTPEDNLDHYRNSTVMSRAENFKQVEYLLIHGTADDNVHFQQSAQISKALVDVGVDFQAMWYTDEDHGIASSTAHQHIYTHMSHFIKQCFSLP
Protocol: (§1) The coating solution was removed and the plate was blocked with 40 μL 2% BSA in PBS blocking buffer for 1 h at room temperature and then discarded. 30 uL sample solution was then added. Sample solutions included recombinant human FAP standard (FIG. 17A), human serum at varying dilutions (FIG. 17B), FAP homologues (FIG. 17C), serum samples from healthy patients (FIGS. 18 and 19), serum samples patients with metastatic colorectal cancer (FIG. 18), serum samples from patients with cardiovascular disease (FIG. 19), sodium citrate plasma samples from healthy patients (FIG. 20), and sodium citrate samples from patients with symptomatic carotid atherosclerotic plaques (FIG. 20). Sample solutions were added at a total volume of 30 μL. The plate was washed three times with 40 μL PBS and blotted dry. […] The plate was then washed again three times with 3×PBS and blotted dry. 30 μL TMB (3,3′,5,5′-Tetramethylbenzidine) solution was then added to each well and allowed to develop for 5-10 minutes at room temperature. The reaction was then stopped by the addition of 30 μL 1M H2SO4, and absorbance at 450 nm was read with a plate reader.

[4] = target: T4, recombinant human Dipeptidyl Peptidase 9 (DPP9) (human, UniProt Q86TI2 1-863, limits assumed); assay: as above
T4 construct: Bought active enzyme; also called rhDPP9
T4 sequence (Q86TI2 whole entry): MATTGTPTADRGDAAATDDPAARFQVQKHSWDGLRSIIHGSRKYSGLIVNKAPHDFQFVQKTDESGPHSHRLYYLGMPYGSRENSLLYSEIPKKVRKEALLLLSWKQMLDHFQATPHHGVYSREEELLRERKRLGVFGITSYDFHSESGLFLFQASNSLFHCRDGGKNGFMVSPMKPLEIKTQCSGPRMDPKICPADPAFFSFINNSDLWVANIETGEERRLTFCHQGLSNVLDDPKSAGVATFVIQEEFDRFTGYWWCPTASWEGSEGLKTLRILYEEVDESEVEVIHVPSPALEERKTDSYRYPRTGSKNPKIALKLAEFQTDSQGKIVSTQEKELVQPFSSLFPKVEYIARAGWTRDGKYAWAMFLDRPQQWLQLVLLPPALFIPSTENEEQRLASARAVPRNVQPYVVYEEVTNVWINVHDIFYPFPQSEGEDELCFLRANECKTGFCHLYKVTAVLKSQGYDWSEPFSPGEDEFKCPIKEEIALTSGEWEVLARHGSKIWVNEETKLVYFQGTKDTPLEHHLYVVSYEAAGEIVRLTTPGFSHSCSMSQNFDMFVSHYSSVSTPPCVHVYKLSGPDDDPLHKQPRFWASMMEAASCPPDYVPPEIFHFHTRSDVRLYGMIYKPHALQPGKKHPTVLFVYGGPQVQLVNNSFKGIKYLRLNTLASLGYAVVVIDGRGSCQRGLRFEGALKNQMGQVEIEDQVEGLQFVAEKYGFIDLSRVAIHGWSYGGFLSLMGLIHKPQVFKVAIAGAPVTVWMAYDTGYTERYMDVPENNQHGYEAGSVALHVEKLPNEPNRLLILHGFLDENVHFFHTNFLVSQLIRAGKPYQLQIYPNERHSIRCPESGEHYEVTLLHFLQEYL
Protocol: as §1

[5] = target: T5, recombinant human Prolyl Oligopeptidase/Prolyl Endopeptidase (POP/PREP) (human, UniProt P48147 1-710); assay: as above
T5 construct: Bought active enzyme; also called rhPOP/PREP; BPS Bioscience 80105
T5 sequence (looked up): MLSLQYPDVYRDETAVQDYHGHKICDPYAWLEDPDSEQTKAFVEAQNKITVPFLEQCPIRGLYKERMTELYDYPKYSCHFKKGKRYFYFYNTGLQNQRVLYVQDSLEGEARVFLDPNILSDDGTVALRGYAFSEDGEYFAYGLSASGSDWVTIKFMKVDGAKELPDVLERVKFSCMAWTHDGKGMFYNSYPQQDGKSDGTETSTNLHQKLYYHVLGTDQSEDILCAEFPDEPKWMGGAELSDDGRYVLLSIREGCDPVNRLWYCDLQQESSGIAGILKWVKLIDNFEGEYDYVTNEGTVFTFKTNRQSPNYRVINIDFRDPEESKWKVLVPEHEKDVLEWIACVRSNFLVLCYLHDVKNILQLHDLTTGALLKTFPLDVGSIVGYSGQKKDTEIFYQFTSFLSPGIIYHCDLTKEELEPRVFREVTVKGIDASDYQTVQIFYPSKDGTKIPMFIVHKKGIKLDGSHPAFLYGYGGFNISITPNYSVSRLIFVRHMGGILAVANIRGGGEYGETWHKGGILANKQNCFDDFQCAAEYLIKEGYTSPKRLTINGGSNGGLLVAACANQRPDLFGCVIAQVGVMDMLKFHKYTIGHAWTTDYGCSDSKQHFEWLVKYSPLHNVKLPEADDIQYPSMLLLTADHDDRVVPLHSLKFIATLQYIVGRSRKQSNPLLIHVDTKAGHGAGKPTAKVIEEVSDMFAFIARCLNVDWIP
Protocol: as §1

B1: NI-206.82C2 (antibody, V domains shown)
VH: QVQLQQSGPGLVKPSQTLSLTCAISGDSVSSNSVTWNWIRQSPSRGLEWLGRTYYRSKWYNDYAVSVKGRITINPDTSKNQFYLQLKSVTPEDAAVYYCARDSSILYGDYWGQGTLVTVSS
VL: QAVLTQPSSLSASPGASASLTCTLPSGINVGTYRIFWFQQKPGSPPQYLLSYKSDSDNHQGSGVPSRFSGSKDASANAGILLISGLQSEDEADYYCMIWHSSAWVFGGGTKLTVL
notes: Recombinantly expressed as complete human IgG1 with a lambda light chain; HRP-labelled in the homologue and sandwich ELISAs, Cy5-labelled in flow cytometry; also called HRP-labelled 82C2; Cy5 labelled 82C2
With B1 the EC50 [1] was 0.61 nM, the binding result [2] was “no binding” and the binding result [3] was “no binding (tested: 250 ng/mL)”. B1: no binding (tested: 250 ng/mL) [4]; no binding (tested: 250 ng/mL) [5].
